In publication PMC5108336, “Tubular epithelial cells in renal clear cell carcinoma express high RIPK1/3 and show increased susceptibility to TNF receptor 1-induced necroptosis” (Cell Death & Disease, 2016):

B1: receptor-interacting protein kinase 3 (natural protein, UniProt Q9Y572-1 1-518, looked up)
chain: MSCVKLWPSGAPAPLVSIEELENQELVGKGGFGTVFRAQHRKWGYDVAVKIVNSKAISREVKAMASLDNEFVLRLEGVIEKVNWDQDPKPALVTKFMENGSLSGLLQSQCPRPWPLLCRLLKEVVLGMFYLHDQNPVLLHRDLKPSNVLLDPELHVKLADFGLSTFQGGSQSGTGSGEPGGTLGYLAPELFVNVNRKASTASDVYSFGILMWAVLAGREVELPTEPSLVYEAVCNRQNRPSLAELPQAGPETPGLEGLKELMQLCWSSEPKDRPSFQECLPKTDEVFQMVENNMNAAVSTVKDFLSQLRSSNRRFSIPESGQGGTEMDGFRRTIENQHSRNDVMVSEWLNKLNLEEPPSSVPKKCPSLTKRSRAQEEQVPQAWTAGTSSDSMAQPPQTPETSTFRNQMPSPTSTGTPSPGPRGNQGAERQGMNWSCRTPEPNPVTGRPLVNIYNCSGVQVGDNNYLTMQQTTALPTWGLAPSGKGRGLQHPPPVGSQEGPKDPEAWSRPQGWYNHSGK
notes: Detected in situ by an anti-RIPK3 antibody; also called RIPK3; source: endogenous, organ cultures of human RCC grade 1 and adjacent non-tumor kidney (tissue sections)
B2: receptor-interacting protein kinase 1 (natural protein, UniProt Q13546-1 1-671, looked up)
chain: MQPDMSLNVIKMKSSDFLESAELDSGGFGKVSLCFHRTQGLMIMKTVYKGPNCIEHNEALLEEAKMMNRLRHSRVVKLLGVIIEEGKYSLVMEYMEKGNLMHVLKAEMSTPLSVKGRIILEIIEGMCYLHGKGVIHKDLKPENILVDNDFHIKIADLGLASFKMWSKLNNEEHNELREVDGTAKKNGGTLYYMAPEHLNDVNAKPTEKSDVYSFAVVLWAIFANKEPYENAICEQQLIMCIKSGNRPDVDDITEYCPREIISLMKLCWEANPEARPTFPGIEEKFRPFYLSQLEESVEEDVKSLKKEYSNENAVVKRMQSLQLDCVAVPSSRSNSATEQPGSLHSSQGLGMGPVEESWFAPSLEHPQEENEPSLQSKLQDEANYHLYGSRMDRQTKQQPRQNVAYNREEERRRRVSHDPFAQQRPYENFQNTEGKGTAYSSAASHGNAVHQPSGLTSQPQVLYQNNGLYSSHGFGTRPLDPGTAGPRVWYRPIPSHMPSLHNIPVPETNYLGNTPTMPFSSLPPTDESIKYTIYNSTGIQIGAYNYMEIGGTSSSLLDSTNTNFKEEPAAKYQAIFDNTTSLTDKHLDPIRENLGKHWKNCARKLGFTQSQIDEIDHDYERDGLKEKVYQMLQKWVMREGIKGATVGKLAQALHQCSRIDLLSSLIYVSQN
notes: Detected in situ by an anti-RIPK1 antibody; also called RIPK1; source: endogenous, organ cultures of human RCC grade 1 and adjacent non-tumor kidney (tissue sections)

Experiments:
[1] = molecular target: T1, Mixed lineage kinase domain-like phosphorylated at Serine 358 (human (endogenous in RCC and kidney …, UniProt Q8NB16 1-471, phosphoserine at 358)); assay: proximity ligation; in situ PLA (Duolink In Situ Detection Reagents Red) on sections of organ cultures of RCC grade 1 and adjacent non-tumor kidney (NK), untreated (UT) or treated with wtTNF (10 ng/ml), R1TNF or R2TNF (1 ug/ml) for 3 h at 37 °C; signal when two proteins are closer than 40 nm; red spots counted in mTECs in 10 random fields at x40; settings: partners not purified
T1 construct: also called pMLKL^Ser358; phospho-MLKL^Ser358; source: endogenous, organ cultures of human RCC grade 1 and adjacent non-tumor kidney (tissue sections)
T1 sequence (looked up): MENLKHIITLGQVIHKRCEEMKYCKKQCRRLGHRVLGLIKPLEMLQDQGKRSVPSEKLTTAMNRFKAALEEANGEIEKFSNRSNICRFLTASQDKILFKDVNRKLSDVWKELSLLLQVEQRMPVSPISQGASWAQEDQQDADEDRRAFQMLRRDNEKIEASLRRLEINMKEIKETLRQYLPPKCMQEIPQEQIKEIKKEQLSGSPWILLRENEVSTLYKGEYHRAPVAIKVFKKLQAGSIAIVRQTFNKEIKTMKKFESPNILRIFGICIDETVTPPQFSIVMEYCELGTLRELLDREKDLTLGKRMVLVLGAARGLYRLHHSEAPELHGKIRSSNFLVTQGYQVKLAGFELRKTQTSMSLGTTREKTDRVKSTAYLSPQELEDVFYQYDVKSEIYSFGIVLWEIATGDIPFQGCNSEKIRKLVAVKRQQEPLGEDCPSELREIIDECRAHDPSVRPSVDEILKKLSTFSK

[2] = molecular target: B1; assay: as above; settings: partners not purified

Binder	fold increase of PLA signal with R1TNF over untreated (non-tumor kidney organ culture) [1] [fold]	fold increase of PLA signal with R1TNF over untreated (non-tumor kidney organ culture) [2] [fold]
B1	~2.5	
B2		~3
